Laboratory results reported in paper PMC3036719, “The Multifunctional LigB Adhesin Binds Homeostatic Proteins with Potential Roles in Cutaneous Infection by Pathogenic Leptospira interrogans” (PLoS ONE, 2011).

Molecular target: T1, LigB9-11 (Leptospira interrogans serovar …)
T1 construct: pET-20b(+) adds an initiating methionine and a C-terminal LEH6 tail; not shown: His6 (LEH6 tail), C-terminal, kept
Test: ELISA; host protein (1 µg per well) immobilised in microtiter wells, blocked with 20 mg/mL BSA; recombinant LigB in 20 mg/mL BSA in PBS pH 7.2, 1 h at 37°C; bound LigB detected by its polyhistidine tag; apparent Kd from the LigB concentration at half-maximal binding
Conditions: both partners purified

B1: fibrinogen fragment D (complex)
chain 1: VSEDLRSRIEVLKRKVIEKVQHIQLLQKNVRAQLVDMKRLEVDIDIKIRSCRGSCSRALAREVDLKDYEDQQKQLEQVIAKDLLPSR
chain 2: DNENVVNEYSSELEKHQLYIDETVNSNIPTNLRVLRSILENLRSKIQKLESDVSAQMEYCRTPCTVSCNIPVVSGKECEEIIRKGGETSEMYLIQPDSSVKPYRVYCDMNTENGGWTVIQNRQDGSVDFGRKWDPYKQGFGNVATNTDGKNYCGLPGEYWLGNDKISQLTRMGPTELLIEMEDWKGDKVKAHYGGFTVQNEANKYQISVNKYRGTAGNALMDGASQLMGENRTMTIHNGMFFSTYDRDNDGWLTSDPRKQCSKEDGGGWWYNRCHAANPNGRYYWGGQYTWDMAKHGTDDGVVWMNWKGSWYSMRKMSMKIRPFFPQQ
chain 3: KMLEEIMKYEASILTHDSSIRYLQEIYNSNNQKIVNLKEKVAQLEAQCQEPCKDTVQIHDITGKDCQDIANKGAKQSGLYFIKPLKANQQFLVYCEIDGSGNGWTVFQKRLDGSVDFKKNWIQYKEGFGHLSPTGTTEFWLGNEKIHLISTQSAIPYALRVELEDWNGRTSTADYAMFKVGPEADKYRLTYAYFAGGDAGDAFDGFDFGDDPSDKFFTSHNGMQFSTWDNDNDKFEGNCAEQDGSGWWMNKCHAGHLNGVYYQGGTYSKASTPNGYDNGIIWATWKTRWYSMKKTTMKIIPFNRLTIGEGQQHHLGGAK
- Kd: 26 nM
